Where a chain is given by its changes, count along the chain named.
Experiments:
Assay in all cases: SPR, antibody captured, C2 as analyte;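 further: biacore SPR at 37 °C, anti-C2 mAbs captured via goat anti-human IgG on CM5 chips, double-referenced sensorgrams fit to a 1:1 kinetic or steady-state model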
human C2 W420A = target: T1, human C2 W420A (human, UniProt P06681 21-752)
T1 sequence: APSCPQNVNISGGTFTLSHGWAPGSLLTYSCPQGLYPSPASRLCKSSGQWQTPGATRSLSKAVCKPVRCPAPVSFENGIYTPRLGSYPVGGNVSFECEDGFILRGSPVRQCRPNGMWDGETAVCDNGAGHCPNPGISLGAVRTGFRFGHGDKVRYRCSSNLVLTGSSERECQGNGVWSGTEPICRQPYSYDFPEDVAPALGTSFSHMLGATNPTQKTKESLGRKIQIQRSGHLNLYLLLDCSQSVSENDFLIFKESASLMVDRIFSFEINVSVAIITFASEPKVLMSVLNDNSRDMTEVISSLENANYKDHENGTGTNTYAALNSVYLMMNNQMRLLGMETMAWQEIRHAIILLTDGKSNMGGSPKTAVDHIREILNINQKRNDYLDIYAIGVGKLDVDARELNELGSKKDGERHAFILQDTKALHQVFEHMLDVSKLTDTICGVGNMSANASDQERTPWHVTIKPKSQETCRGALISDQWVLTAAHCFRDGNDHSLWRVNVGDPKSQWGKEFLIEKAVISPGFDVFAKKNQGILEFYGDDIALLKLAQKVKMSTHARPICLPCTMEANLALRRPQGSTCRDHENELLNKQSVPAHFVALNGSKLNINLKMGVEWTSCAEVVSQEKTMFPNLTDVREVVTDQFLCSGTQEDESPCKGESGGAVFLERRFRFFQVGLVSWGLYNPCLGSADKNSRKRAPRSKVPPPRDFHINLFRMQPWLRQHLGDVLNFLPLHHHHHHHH

human C2 N621A = target: T2, human C2 N621A (human, UniProt P06681 21-752)
T2 sequence: T1 sequence with A400W, N601A

human C2 S278A = target: T3, human C2 S278A (human, UniProt P06681 21-752)
T3 sequence: T1 sequence with S258A, A400W

human C2 K721A = target: T4, human C2 K721A (human, UniProt P06681 21-752)
T4 sequence: T1 sequence with A400W, K701A

B1: RF16-226 (antibody, human IgG4 S228P, lambda)
heavy: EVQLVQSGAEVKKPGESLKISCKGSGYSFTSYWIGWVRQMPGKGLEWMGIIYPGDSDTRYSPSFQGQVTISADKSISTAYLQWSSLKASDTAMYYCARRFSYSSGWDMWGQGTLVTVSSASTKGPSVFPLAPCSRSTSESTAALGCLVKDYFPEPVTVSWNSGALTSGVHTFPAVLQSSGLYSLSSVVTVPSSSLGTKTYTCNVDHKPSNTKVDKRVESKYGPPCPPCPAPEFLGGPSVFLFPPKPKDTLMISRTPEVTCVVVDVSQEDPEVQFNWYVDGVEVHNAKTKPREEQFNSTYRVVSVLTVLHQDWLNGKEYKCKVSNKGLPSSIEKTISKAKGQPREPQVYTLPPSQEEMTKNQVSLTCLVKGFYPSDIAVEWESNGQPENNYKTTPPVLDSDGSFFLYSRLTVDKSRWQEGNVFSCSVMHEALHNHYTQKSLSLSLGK
light: SYELTQPPSVSVSPGQTARITCSGDALTSKYVAWYQQKSGLAPLLVIYEDTRRPSGIPAKFSGSSSGSVATLTISGAHGDDEADYYCYSTDASGHQRVFGGGTKLTVLSQPKAAPSVTLFPPSSEELQANKATLVCLISDFYPGAVTVAWKADGSPVKAGVETTKPSKQSNNKYAASSYLSLTPEQWKSHRSYSCQVTHEGSTVEKTVAPTECS
notes: pH-dependent anti-C2 antibody from a phage display library; also called WT
Kd (human C2 W420A): 15.6 nM
Kd (human C2 N621A): 51.5 nM
Kd (human C2 S278A): 9.4 nM
Kd (human C2 K721A): 99.9 nM
